Reference: paper PMC10197132

Assays:
[1] = target: G3-SEAP (human-secreted embryonic alkaline phosphatase with an N-terminal Gly3 sequence) (human); assay: SEC-MALS
G3-SEAP = G3-SEAP (human, UniProt P05187); assay: fluorescence polarization

stoichiometry N [1]	Molecule	binding result (G3-SEAP)
2	G3-SEAP (human-secreted embryonic alkaline phosphatase with an N-terminal Gly3 sequence) (enzyme)	–
–	FAM-23DR DNA-RNA hybrid (DNA:RNA) DNA: CGGTGTGGTCGCTGTAATCAGAG RNA: CUCUGAUUACAGCGACCACACCG	no binding
